Data as given in US20060280740A1.

What was measured:
[1] = molecular target: KIR2DL3 recombinant protein (entire extracellular domain, produced in E. coli, immobilized on Biacore chip) (human) (UniProt P43628); assay: SPR, KIR2DL3 chip; second Ab after first Ab 1-4 F1
[2] = molecular target: KIR2DL3 recombinant protein (entire extracellular domain, produced in E. coli, immobilized on Biacore chip) (human) (UniProt P43628); assay: SPR, KIR2DL3 chip; second Ab after first Ab 1-6 F1
[3] = molecular target: KIR2DL3 recombinant protein (entire extracellular domain, produced in E. coli, immobilized on Biacore chip) (human) (UniProt P43628); assay: SPR, KIR2DL3 chip; second Ab after first Ab 1-7 F9
[4] = molecular target: KIR2DL3 recombinant protein (entire extracellular domain, produced in E. coli, immobilized on Biacore chip) (human) (UniProt P43628); assay: SPR competition, KIR2DL3 chip; competitor (second Ab) DF200
[5] = molecular target: KIR2DL3 recombinant protein (entire extracellular domain, produced in E. coli, immobilized on Biacore chip) (human) (UniProt P43628); assay: SPR competition, KIR2DL3 chip; competitor (second Ab) Pan2D
[6] = molecular target: KIR2DL3 recombinant protein (entire extracellular domain, produced in E. coli, immobilized on Biacore chip) (human) (UniProt P43628); assay: SPR competition, KIR2DL3 chip; competitor (second Ab) 1-4 F1
[7] = molecular target: KIR2DL3 recombinant protein (entire extracellular domain, produced in E. coli, immobilized on Biacore chip) (human) (UniProt P43628); assay: SPR competition, KIR2DL3 chip; competitor (second Ab) 1-6 F1
[8] = molecular target: KIR2DL3 recombinant protein (entire extracellular domain, produced in E. coli, immobilized on Biacore chip) (human) (UniProt P43628); assay: SPR competition, KIR2DL3 chip; competitor (second Ab) 1-7 F9
[9] = molecular target: KIR2DL3 recombinant protein (entire extracellular domain, produced in E. coli, immobilized on Biacore chip) (human) (UniProt P43628); assay: SPR, KIR2DL3 chip; second Ab alone (field of first Ab 1-4 F1)
[10] = molecular target: KIR2DL3 recombinant protein (entire extracellular domain, produced in E. coli, immobilized on Biacore chip) (human) (UniProt P43628); assay: SPR, KIR2DL3 chip; second Ab alone (field of first Ab 1-6 F1)
[11] = molecular target: KIR2DL3 recombinant protein (entire extracellular domain, produced in E. coli, immobilized on Biacore chip) (human) (UniProt P43628); assay: SPR, KIR2DL3 chip; second Ab alone (field of first Ab 1-7 F9)
[12] = molecular target: KIR2DL1 recombinant protein (entire extracellular domain, produced in E. coli, immobilized on Biacore chip) (human) (UniProt P43626); assay: SPR, KIR2DL1 chip; second Ab after first Ab 1-6 F1
KIR2DL1 recombinant protein (entire extracellular domain, produced in E. coli, immobilized on Biacore chip) (human), sequence (P43626 22-245): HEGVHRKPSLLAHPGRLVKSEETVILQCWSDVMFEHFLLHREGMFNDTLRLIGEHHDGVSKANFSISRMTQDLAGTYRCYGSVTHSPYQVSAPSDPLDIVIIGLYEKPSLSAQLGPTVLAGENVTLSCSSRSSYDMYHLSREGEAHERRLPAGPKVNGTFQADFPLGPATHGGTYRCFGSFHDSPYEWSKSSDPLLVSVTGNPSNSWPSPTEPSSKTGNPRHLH

[13] = molecular target: KIR2DL1 recombinant protein (entire extracellular domain, produced in E. coli, immobilized on Biacore chip) (human) (UniProt P43626); assay: SPR, KIR2DL1 chip; second Ab after first Ab 1-6 F5
[14] = molecular target: KIR2DL1 recombinant protein (entire extracellular domain, produced in E. coli, immobilized on Biacore chip) (human) (UniProt P43626); assay: SPR, KIR2DL1 chip; second Ab after first Ab 1-7 F9
[15] = molecular target: KIR2DL3 recombinant protein (entire extracellular domain, produced in E. coli, immobilized on Biacore chip) (human) (UniProt P43628); assay: SPR, KIR2DL3 chip; second Ab after first Ab 1-6 F5
immobilized KIR 2DS1 [16] = molecular target: immobilized KIR 2DS1 (UniProt Q14954); assay: SPR, KIR2DS1 chip; second Ab after first Ab 1-7 F9
immobilized KIR 2DS1, sequence (Q14954 22-245 limits assumed): as the sequence (P43626 22-245) above, with T70K, V90L, L114P, P154T, D163N, H182R, K216E counted along it

[17] = molecular target: KIR2DL1 recombinant protein (entire extracellular domain, produced in E. coli, immobilized on Biacore chip) (human) (UniProt P43626); assay: SPR competition, KIR2DL1 chip; competitor (second Ab) EB6
[18] = molecular target: KIR2DL1 recombinant protein (entire extracellular domain, produced in E. coli, immobilized on Biacore chip) (human) (UniProt P43626); assay: SPR competition, KIR2DL1 chip; competitor (second Ab) Pan2D
[19] = molecular target: KIR2DL3 recombinant protein (entire extracellular domain, produced in E. coli, immobilized on Biacore chip) (human) (UniProt P43628); assay: SPR competition, KIR2DL3 chip; competitor (second Ab) gl183
immobilized KIR 2DS1 [20] = molecular target: immobilized KIR 2DS1 (UniProt Q14954); assay: SPR competition, KIR2DS1 chip; competitor (second Ab) Pan2D
[21] = molecular target: KIR2DL1 recombinant protein (entire extracellular domain, produced in E. coli, immobilized on Biacore chip) (human) (UniProt P43626); assay: SPR competition, KIR2DL1 chip; competitor (second Ab) 1-4 F1
[22] = molecular target: KIR2DL1 recombinant protein (entire extracellular domain, produced in E. coli, immobilized on Biacore chip) (human) (UniProt P43626); assay: SPR competition, KIR2DL1 chip; competitor (second Ab) 1-6 F1
[23] = molecular target: KIR2DL1 recombinant protein (entire extracellular domain, produced in E. coli, immobilized on Biacore chip) (human) (UniProt P43626); assay: SPR competition, KIR2DL1 chip; competitor (second Ab) 1-6 F5
[24] = molecular target: KIR2DL1 recombinant protein (entire extracellular domain, produced in E. coli, immobilized on Biacore chip) (human) (UniProt P43626); assay: SPR competition, KIR2DL1 chip; competitor (second Ab) 1-7 F9
[25] = molecular target: KIR2DL3 recombinant protein (entire extracellular domain, produced in E. coli, immobilized on Biacore chip) (human) (UniProt P43628); assay: SPR competition, KIR2DL3 chip; competitor (second Ab) 1-6 F5
immobilized KIR 2DS1 [26] = molecular target: immobilized KIR 2DS1 (UniProt Q14954); assay: SPR competition, KIR2DS1 chip; competitor (second Ab) 1-4 F1
immobilized KIR 2DS1 [27] = molecular target: immobilized KIR 2DS1 (UniProt Q14954); assay: SPR competition, KIR2DS1 chip; competitor (second Ab) 1-7 F9
[28] = molecular target: KIR2DL1 recombinant protein (entire extracellular domain, produced in E. coli, immobilized on Biacore chip) (human) (UniProt P43626); assay: SPR, KIR2DL1 chip; second Ab alone (field of first Ab 1-6 F1)
[29] = molecular target: KIR2DL1 recombinant protein (entire extracellular domain, produced in E. coli, immobilized on Biacore chip) (human) (UniProt P43626); assay: SPR, KIR2DL1 chip; second Ab alone (field of first Ab 1-6 F5)
[30] = molecular target: KIR2DL1 recombinant protein (entire extracellular domain, produced in E. coli, immobilized on Biacore chip) (human) (UniProt P43626); assay: SPR, KIR2DL1 chip; second Ab alone (field of first Ab 1-7 F9)
[31] = molecular target: KIR2DL3 recombinant protein (entire extracellular domain, produced in E. coli, immobilized on Biacore chip) (human) (UniProt P43628); assay: SPR, KIR2DL3 chip; second Ab alone (field of first Ab 1-6 F5)
immobilized KIR 2DS1 [32] = molecular target: immobilized KIR 2DS1 (UniProt Q14954); assay: SPR, KIR2DS1 chip; second Ab alone (field of first Ab 1-7 F9)
[33] = molecular target: KIR2DL1(R131W)-hFc (human) (UniProt P43626); assay: ELISA, KIR2DL1(R131W)-hFc against KIR2DL1-hFc, mAb at 1 µg/ml
KIR2DL1(R131W)-hFc (human), sequence (P43626 22-245 R152W): as the sequence (P43626 22-245) above, with R131W counted along it

[34] = molecular target: KIR2DL1 recombinant protein (entire extracellular domain, produced in E. coli, immobilized on Biacore chip) (human) (UniProt P43626); assay: SPR (Biacore), KIR2DL1 immobilized on CM5, soluble antibody 1x10^-7 to 4x10^-10 M
[35] = molecular target: KIR2DL3 recombinant protein (entire extracellular domain, produced in E. coli, immobilized on Biacore chip) (human) (UniProt P43628); assay: SPR (Biacore), KIR2DL3 immobilized on CM5, soluble antibody 1x10^-7 to 4x10^-10 M
[36] = molecular target: KIR2DL1 recombinant protein (entire extracellular domain, produced in E. coli, immobilized on Biacore chip) (human) (UniProt P43626); assay: SPR competition, KIR2DL1 chip; competitor (second Ab) DF200
immobilized KIR 2DS1 [37] = molecular target: immobilized KIR 2DS1 (UniProt Q14954); assay: SPR competition, KIR2DS1 chip; competitor (second Ab) DF200

KIR2DL3 recombinant protein (entire extracellular domain, produced in E. coli, immobilized on Biacore chip) (human), sequence (P43628 22-245): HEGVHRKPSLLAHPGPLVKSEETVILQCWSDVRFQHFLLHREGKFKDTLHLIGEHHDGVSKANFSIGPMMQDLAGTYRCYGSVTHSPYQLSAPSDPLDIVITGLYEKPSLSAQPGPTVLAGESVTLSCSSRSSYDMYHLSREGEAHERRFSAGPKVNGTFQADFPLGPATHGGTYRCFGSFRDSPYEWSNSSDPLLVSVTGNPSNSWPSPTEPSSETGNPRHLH

GL183 (IgG1 anti KIR2DL3) (antibody) showed an RU, second antibody with first antibody present [1] of 330 RU, an RU, second antibody with first antibody present [2] of 570 RU and an RU, second antibody with first antibody present [3] of 200 RU. It also gave a % inhibition of second antibody binding [4] of 8%, a % inhibition of second antibody binding [5] of 40% and a % inhibition of second antibody binding [6] of 75%. The % inhibition of second antibody binding [7] was 18%, the % inhibition of second antibody binding [8] was 76% and the RU, direct binding of second antibody [9] was 1240 RU. The RU, direct binding of second antibody [10] was 620 RU and the RU, direct binding of second antibody [11] was 800 RU.

Substance “monoclonal antibody DF200 produced by hybridoma DF200” has an RU, second antibody with first antibody present [12] of 310 RU, an RU, second antibody with first antibody present [13] of 290 RU and an RU, second antibody with first antibody present [14] of 545 RU. The RU, second antibody with first antibody present [1] was 210 RU, the RU, second antibody with first antibody present [2] was 760 RU and the RU, second antibody with first antibody present [15] was 760 RU. The RU, second antibody with first antibody present [3] was 450 RU, the RU, second antibody with first antibody present (immobilized KIR 2DS1 [16]) was 1090 RU and the % inhibition of second antibody binding [17] was 90%. The % inhibition of second antibody binding [18] was 80%, the % inhibition of second antibody binding [5] was 75% and the % inhibition of second antibody binding [19] was 20%. The % inhibition of second antibody binding (immobilized KIR 2DS1 [20]) was 70%, the % inhibition of second antibody binding [21] was 92% and the % inhibition of second antibody binding [22] was 15%. The % inhibition of second antibody binding [23] was 15%, the % inhibition of second antibody binding [24] was 27% and the % inhibition of second antibody binding [6] was 75%. The % inhibition of second antibody binding [7] was 16%, the % inhibition of second antibody binding [25] was 4% and the % inhibition of second antibody binding [8] was 62%. It also gave a % inhibition of second antibody binding (immobilized KIR 2DS1 [26]) of 87%, a % inhibition of second antibody binding (immobilized KIR 2DS1 [27]) of 15% and an RU, direct binding of second antibody [28] of 350 RU. For the same substance, the RU, direct binding of second antibody [29] was 350 RU, the RU, direct binding of second antibody [30] was 600 RU and the RU, direct binding of second antibody [9] was 1140 RU. For the same substance, the RU, direct binding of second antibody [10] was 790 RU, the RU, direct binding of second antibody [31] was 800 RU and the RU, direct binding of second antibody [11] was 770 RU. The RU, direct binding of second antibody (immobilized KIR 2DS1 [32]) was 900 RU, the reduction in binding compared to wild type [33] was 10% and the Kd [34] was 10.9 nM. For the same substance, the Kd [35] was 2 nM.

monoclonal antibody NKVSF1 showed an RU, second antibody with first antibody present [12] of 440 RU, an RU, second antibody with first antibody present [13] of 440 RU and an RU, second antibody with first antibody present [14] of 534 RU. The RU, second antibody with first antibody present [1] was 890 RU, the RU, second antibody with first antibody present [2] was 1090 RU and the RU, second antibody with first antibody present [15] was 950 RU. The RU, second antibody with first antibody present [3] was 830 RU, the RU, second antibody with first antibody present (immobilized KIR 2DS1 [16]) was 1200 RU and the % inhibition of second antibody binding [17] was 90%. It also gave a % inhibition of second antibody binding [36] of 90%, a % inhibition of second antibody binding [4] of 95% and a % inhibition of second antibody binding [19] of 85%. It also gave a % inhibition of second antibody binding (immobilized KIR 2DS1 [37]) of 100%, a % inhibition of second antibody binding [21] of 95% and a % inhibition of second antibody binding [22] of 12%. It also gave a % inhibition of second antibody binding [23] of 13%, a % inhibition of second antibody binding [24] of 2% and a % inhibition of second antibody binding [6] of 68%. For the same substance, the % inhibition of second antibody binding [7] was 8%, the % inhibition of second antibody binding [25] was 18% and the % inhibition of second antibody binding [8] was 15%. For the same substance, the % inhibition of second antibody binding (immobilized KIR 2DS1 [26]) was 100%, the % inhibition of second antibody binding (immobilized KIR 2DS1 [27]) was 45% and the RU, direct binding of second antibody [28] was 475 RU. For the same substance, the RU, direct binding of second antibody [29] was 475 RU, the RU, direct binding of second antibody [30] was 545 RU and the RU, direct binding of second antibody [9] was 2400 RU. The RU, direct binding of second antibody [10] was 990 RU, the RU, direct binding of second antibody [31] was 990 RU and the RU, direct binding of second antibody [11] was 870 RU. The RU, direct binding of second antibody (immobilized KIR 2DS1 [32]) was 1350 RU and the reduction in binding compared to wild type [33] was 10%.
